Target: T1, ZCCHC6 (human, UniProt Q5VYS8 1-1495, limits assumed)
T1 sequence (looked up): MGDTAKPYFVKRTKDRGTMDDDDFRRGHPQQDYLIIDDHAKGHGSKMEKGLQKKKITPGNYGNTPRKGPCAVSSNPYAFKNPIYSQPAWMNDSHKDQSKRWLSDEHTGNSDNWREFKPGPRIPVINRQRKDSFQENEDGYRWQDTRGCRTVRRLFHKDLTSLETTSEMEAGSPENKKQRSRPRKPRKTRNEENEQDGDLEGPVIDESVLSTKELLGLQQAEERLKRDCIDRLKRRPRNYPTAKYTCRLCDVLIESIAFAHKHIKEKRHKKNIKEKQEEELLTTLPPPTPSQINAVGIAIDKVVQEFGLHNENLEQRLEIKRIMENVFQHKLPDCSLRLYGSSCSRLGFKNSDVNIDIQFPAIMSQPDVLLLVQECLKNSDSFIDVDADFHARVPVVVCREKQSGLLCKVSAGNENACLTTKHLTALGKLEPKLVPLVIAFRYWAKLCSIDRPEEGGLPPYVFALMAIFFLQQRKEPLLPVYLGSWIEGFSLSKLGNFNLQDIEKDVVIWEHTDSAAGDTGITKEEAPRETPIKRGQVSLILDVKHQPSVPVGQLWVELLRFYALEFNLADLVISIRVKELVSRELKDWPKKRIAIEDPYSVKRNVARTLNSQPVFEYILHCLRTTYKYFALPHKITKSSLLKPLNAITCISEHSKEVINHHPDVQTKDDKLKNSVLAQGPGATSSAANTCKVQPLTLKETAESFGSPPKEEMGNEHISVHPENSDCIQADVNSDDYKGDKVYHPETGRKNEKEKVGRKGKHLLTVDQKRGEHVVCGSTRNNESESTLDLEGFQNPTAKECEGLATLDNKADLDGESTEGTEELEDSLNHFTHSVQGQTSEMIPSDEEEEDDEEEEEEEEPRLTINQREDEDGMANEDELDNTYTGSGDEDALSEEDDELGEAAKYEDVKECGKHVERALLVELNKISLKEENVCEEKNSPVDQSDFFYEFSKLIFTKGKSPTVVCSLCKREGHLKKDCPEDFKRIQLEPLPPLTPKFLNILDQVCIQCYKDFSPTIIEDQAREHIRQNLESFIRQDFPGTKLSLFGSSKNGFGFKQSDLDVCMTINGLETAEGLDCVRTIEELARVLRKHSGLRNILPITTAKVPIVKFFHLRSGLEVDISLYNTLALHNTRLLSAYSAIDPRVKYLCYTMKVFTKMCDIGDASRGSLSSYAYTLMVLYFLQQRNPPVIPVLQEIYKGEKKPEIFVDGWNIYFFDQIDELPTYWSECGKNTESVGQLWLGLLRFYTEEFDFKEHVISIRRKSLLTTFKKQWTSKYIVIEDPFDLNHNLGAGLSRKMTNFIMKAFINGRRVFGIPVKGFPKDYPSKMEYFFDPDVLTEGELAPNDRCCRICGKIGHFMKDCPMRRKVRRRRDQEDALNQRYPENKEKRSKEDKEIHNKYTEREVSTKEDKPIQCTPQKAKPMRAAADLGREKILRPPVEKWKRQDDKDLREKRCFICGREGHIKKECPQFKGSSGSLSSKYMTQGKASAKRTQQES
Test: IP/MS, LZTR1 wild type-FLAG, U87
Summary of the method: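 Read-out: spectral counts from LC-MS/MS (Orbitrap Fusion) after MaxQuant identification. Variable modifications were Met oxidation, protein N-terminal acetylation and N/Q deamidation.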

binding result: binds
B1: LZTR1-FLAG (other, human, UniProt Q8N653 1-840, looked up)
chain: MAGPGSTGGQIGAAALAGGARSKVAPSVDFDHSCSDSVEYLTLNFGPFETVHRWRRLPPCDEFVGARRSKHTVVAYKDAIYVFGGDNGKTMLNDLLRFDVKDCSWCRAFTTGTPPAPRYHHSAVVYGSSMFVFGGYTGDIYSNSNLKNKNDLFEYKFATGQWTEWKIEGRLPVARSAHGATVYSDKLWIFAGYDGNARLNDMWTIGLQDRELTCWEEVAQSGEIPPSCCNFPVAVCRDKMFVFSGQSGAKITNNLFQFEFKDKTWTRIPTEHLLRGSPPPPQRRYGHTMVAFDRHLYVFGGAADNTLPNELHCYDVDFQTWEVVQPSSDSEVGGAEVPERACASEEVPTLTYEERVGFKKSRDVFGLDFGTTSAKQPTQPASELPSGRLFHAAAVISDAMYIFGGTVDNNIRSGEMYRFQFSCYPKCTLHEDYGRLWESRQFCDVEFVLGEKEECVQGHVAIVTARSRWLRRKITQARERLAQKLEQEAAPVPREAPGVAAGGARPPLLHVAIREAEARPFEVLMQFLYTDKIKYPRKGHVEDVLLIMDVYKLALSFQLCRLEQLCRQYIEASVDLQNVLVVCESAARLQLSQLKEHCLNFVVKESHFNQVIMMKEFERLSSPLIVEIVRRKQQPPPRTPLDQPVDIGTSLIQDMKAYLEGAGAEFCDITLLLDGHPRPAHKAILAARSSYFEAMFRSFMPEDGQVNISIGEMVPSRQAFESMLRYIYYGEVNMPPEDSLYLFAAPYYYGFYNNRLQAYCKQNLEMNVTVQNVLQILEAADKTQALDMKRHCLHIIVHQFTKVSKLPTLRSLSQQLLLDIIDSLASHISDKQCAELGADI
notes: Expressed in HEK 293T, HeLa or U87 cells; used as cell lysate; also called LZTR1 wild type-FLAG; LZTR1 WT; not shown: FLAG tag at the C-terminus

— patent US20250262210A1 (TRUSTEES OF COLUMBIA UNIVERSITY IN THE CITY OF NEW YORK, published 2025)
